Assays:
[1] = biological target: T1, AH receptor nuclear translocator (ARNT), full length (human, UniProt P27540 1-789); assay: yeast two-hybrid with full-length ARNT, lacZ reporter
T1 construct: Full length: in vitro translated, expressed in yeast (PL574) or transfected; Endogenous ARNT in the Hep3B experiment; also called huARNT; hARNT
Text: (§1) This plasmid was designated PL371, and subsequently was digested with NotI and XhoI, this fragment cloned into the corresponding sites of pSGBCU11. This clone was designated PL574. The LexAMOP fusion protein constructs were cotransformed with a yeast expression vector containing the full length AHR or ARNT into L40, a yeast strain containing integrated lacZ and HIS3 reporter genes. As controls, LexAAHR and LexAARNT were cotransformed with AHR and ARNT. The strength of interaction was visually characterized by X-Gal (5-bromo-4-chloro-3-indolyl-(-D-galactoside) plate assays, performed after three days growth on selective media (Bohen et al, Proc. Natl. Acad. Sci. USA 90: 11424–11428, 1993). To provide quantitation of the interaction strength, multiple colonies from yeast harboring each bHLH-PAS combination colonies were grown overnight in liquid media. Liquid cultures were grown for 5 hours, and assayed for lacZ activity using the Galacto-Light chemiluminescence reporter system (Tropix, Bedford, Mass.). To determine the effect of AHR agonists on these interactions, yeast were also grown on plates or in liquid culture with and without 1 μM βNF (Carver et al., J. Biol. Chem. 269: 30109–30112, 1994).
(§2) 2. Interaction of MOPs with the AHR and ARNT in vivo; Yeast two-hybrid experiments. […]

[2] = biological target: T2, human aryl hydrocarbon receptor (AHR), full length (human, UniProt P35869 1-848); assay: yeast two-hybrid, lacZ reporter, with and without 1 µM βNF
T2 construct: Full length in yeast (PRSAHR) and in the Hsp90 co-IP (huAHR); also called huAHR; Ah receptor
T2 sequence (looked up): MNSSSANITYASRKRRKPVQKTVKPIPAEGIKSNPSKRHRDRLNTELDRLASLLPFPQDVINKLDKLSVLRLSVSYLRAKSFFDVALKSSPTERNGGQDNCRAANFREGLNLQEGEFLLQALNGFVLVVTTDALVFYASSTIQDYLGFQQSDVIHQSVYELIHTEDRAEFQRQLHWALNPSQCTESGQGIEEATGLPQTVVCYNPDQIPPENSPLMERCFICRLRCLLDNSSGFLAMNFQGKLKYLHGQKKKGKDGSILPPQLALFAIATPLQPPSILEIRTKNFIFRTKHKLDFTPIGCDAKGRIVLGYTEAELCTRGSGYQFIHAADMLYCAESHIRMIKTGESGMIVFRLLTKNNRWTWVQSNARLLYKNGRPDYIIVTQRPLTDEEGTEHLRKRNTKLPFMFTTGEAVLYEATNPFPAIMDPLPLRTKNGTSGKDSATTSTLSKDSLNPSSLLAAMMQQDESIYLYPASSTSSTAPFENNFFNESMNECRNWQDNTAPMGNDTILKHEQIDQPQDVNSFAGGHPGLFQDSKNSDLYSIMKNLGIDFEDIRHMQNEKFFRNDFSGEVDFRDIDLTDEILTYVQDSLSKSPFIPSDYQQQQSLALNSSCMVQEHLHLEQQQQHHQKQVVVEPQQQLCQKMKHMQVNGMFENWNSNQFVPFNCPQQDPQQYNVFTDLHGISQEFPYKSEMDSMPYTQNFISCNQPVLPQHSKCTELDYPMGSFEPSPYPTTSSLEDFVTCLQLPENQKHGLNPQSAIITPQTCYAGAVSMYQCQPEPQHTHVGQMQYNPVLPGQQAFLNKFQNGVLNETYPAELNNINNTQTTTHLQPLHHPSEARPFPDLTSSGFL
Text: as §1, §2

T1 sequence (P27540 whole entry): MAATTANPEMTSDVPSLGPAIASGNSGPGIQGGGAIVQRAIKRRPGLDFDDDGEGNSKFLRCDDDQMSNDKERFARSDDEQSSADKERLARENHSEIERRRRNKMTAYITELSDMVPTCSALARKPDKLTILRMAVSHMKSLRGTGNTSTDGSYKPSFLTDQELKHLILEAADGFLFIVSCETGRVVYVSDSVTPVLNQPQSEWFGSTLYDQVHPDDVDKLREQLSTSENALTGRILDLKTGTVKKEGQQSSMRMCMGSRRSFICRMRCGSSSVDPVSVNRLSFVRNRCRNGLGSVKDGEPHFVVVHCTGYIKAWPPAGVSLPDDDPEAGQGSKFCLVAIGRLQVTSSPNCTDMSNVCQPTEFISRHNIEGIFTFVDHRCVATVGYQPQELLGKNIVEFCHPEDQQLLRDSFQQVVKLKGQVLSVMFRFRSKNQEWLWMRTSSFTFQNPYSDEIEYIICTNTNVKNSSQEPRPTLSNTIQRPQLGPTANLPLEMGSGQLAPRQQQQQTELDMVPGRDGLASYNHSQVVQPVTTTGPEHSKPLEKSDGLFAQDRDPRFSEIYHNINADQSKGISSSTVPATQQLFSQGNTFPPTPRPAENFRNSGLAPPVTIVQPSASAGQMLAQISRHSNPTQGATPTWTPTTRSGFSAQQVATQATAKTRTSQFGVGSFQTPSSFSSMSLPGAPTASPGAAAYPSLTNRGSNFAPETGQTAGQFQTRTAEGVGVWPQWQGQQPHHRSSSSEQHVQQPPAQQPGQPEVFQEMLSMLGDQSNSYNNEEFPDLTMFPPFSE

B1: LexAMOP4 (other)
chain: MKALTARQQEVFDLIRDHISQTGMPPTRAEIAQRLGFRSPNAAEEHLKALARKGVIEIVSGASRGIRLLQEEEEGLPLVGRVAAGEPLLAQQHIEGHYQVDPSLFKPNADFLLRVSGMSMKDIGIMDGDLLAVHKTQDVRNGQVVVARIDDEVTVKRLKKQGNKVELLPENSEFKPIVVDLRQQSFTIEGLAVGVIRNGDWLMDEDEKDRAKRASRNKSEKKRRDQFNVLIKELSSMLPGNTRKMDKTTVLEEVIGFLQKHNEVSAQTEICDIQQDWKPSFLSNEEFTQLMLEALDGFIIAVTTDGSIIYVSDSITPLLGHLPSDVMDQNLLNFLPEQEHSEVYKILSSHMLVTDSPSPEYLKSDGDLEFYCHLLRGSLNPKEFPTYEYIKFVGNFRSYNNVPSPSCNGFDNTLSRPCRVPLGKEVCFIATVRLATPQFLKEMCIVDEPLEEFTSRHSLEWKFLFLDHRAPPIIGYLPFEVLGTSGYDYYHIDDLELLARCHQHLMQFGKGKSCCYRFLTKGQQWIWLQTHYYITYHQWNSKPEFIVCTHSVVSYADVRVERRQELA
notes: range 1-202; also called LexAbHLH-PAS fusion of MOP4; MOP4 bait plasmid
binding result [1]: no binding | binding result [2]: no binding
